The target of one series is T1, Fzf1-N117 (Saccharomyces cerevisiae, UniProt P32805 1-117).
T1 sequence: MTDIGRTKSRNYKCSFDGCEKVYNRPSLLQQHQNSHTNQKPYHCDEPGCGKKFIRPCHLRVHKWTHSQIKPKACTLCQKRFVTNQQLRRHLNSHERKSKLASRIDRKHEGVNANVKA
Put plainly: EMSA; poly dI-dC, BSA; EMSA: 0.1 pmol dsDNA probe, 2 ng BSA, 0.5 ug poly dI-dC (added after incubation), EMSA binding buffer (composition, salt and pH not given), 20 min on ice, 6% native PAGE; protein 0-150 nM. As to conditions: protein: recombinant; tags: N-terminal GST removed by PreScission protease; blunt.

Another series concerns the target T2, Fzf1 (Saccharomyces cerevisiae, UniProt P32805 1-299).
T2 sequence: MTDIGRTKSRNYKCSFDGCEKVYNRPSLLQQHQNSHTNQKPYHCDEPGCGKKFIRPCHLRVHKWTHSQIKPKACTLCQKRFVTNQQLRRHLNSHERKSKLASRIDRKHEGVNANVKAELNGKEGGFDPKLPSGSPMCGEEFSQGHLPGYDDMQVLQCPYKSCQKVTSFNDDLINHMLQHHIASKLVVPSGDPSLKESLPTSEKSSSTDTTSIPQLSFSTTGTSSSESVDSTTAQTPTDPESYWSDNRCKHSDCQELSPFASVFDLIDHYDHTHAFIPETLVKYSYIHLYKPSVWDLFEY
Described as above. The settings on record: protein: recombinant; tags: GST fusion from pGEX-6p-1 (pGEX-FZF1); tag removal by PreScission described only for N117; blunt.

Experimental findings from PMC12843318, “Zinc-Finger 5 Is an Activation Domain in the Saccharomyces cerevisiae Stress-Responsive Transcription Factor Fzf1” are described below.

B1: SSU1-CS2 (dsDNA)
DNA 1: GAAAAAAAAATGATAGTTTGCAGGAAG
DNA 2: CTTCCTGCAAACTATCATTTTTTTTTC
For B1, the Kd in the series with Fzf1-N117 is approximately 30 nM; with Fzf1, approximately 35 nM.
